This series is described as follows: label from the status in PepcDB records.

Drawing on a protein production outcome set (Wang et al. 2014), this text covers protein production for 18 sequences.

For “MAGTTEITTKPERVVVLDTGELDSVLSLGITPVGMTTTKGANPVPSYLADKVKDVERVGTINELNIEAIAALKPDLIIGSQLRADKLYPQLSDIAPTVFSIRPGSPWKENFLLVGEALGMEKEAEEKLNEYADRVAELKNNVPQNTEVSLVRFMPNKLRLYGNKSLIGVVLADAGLARPEKQNVDDLAVEISPENIDQAAGSVIFYTSYGKPDATGETAVVEGPAWKNLEAVAAGKAHRVNDDVWFLGLGPTGAMEIVSDLHDYLLEHHHHHH”, the protein production entry is given as “not failed”.
For the sequence “MAHATPPSALEQGGPIRVEHDRQRRQFSVRLNGCHDRAVLLYEYVGKRIVDLQHTEVPDAYRGRGIAKHLAKAALDFVVEEDLKAHLTCWYIQKYVKENPLPQYLERLQP”, the protein production entry was “failed”.
The value for “MAHELSAGSVFAGYRIERMLGAGGMGTVYLARNPDLPRSEALKVLAAELSRDLDFRARFVREADVAAGLDHPNIVAVHQRGQFEGRLWIAMQFVDGGNAEDALRAATMTTARAVYVIGEVAKALDYAHQQGVIHRDIKPANFLLSRAAGGDERVLLSDFGIARALGDTGLTSTGSVLATLAYAAPEVLAGQGFDGRADLYSLGCALFRLLTGEAPFAAGAGAAVAVVAGHLHQPPPTVSDRVPGLSAAMDAVIATAMAKDPMRRFTSAGEFAHAAAAALYGGATDGWVPPSPAPHVISQGAVPGSPWWQHPVGSVTALATPPGHGWPPGLPPLPRRPRRYRRGVAAVAAVMVVAAAAVTAVTMTSHQPRTATPPSAAALSPTSSSTTPPQPPIVTRSRLPGLLPPLDDVKNFVGIQNLVAHEPMLQPQTPNGSINPAECWPAVGGGVPSAYDLGTVIGFYGLTIDEPPTGTAPNQVGQLIVAFRDAATAQRHLADLASIWRRCGGRTVTLFRSEWRRPVELSTSVPEVVDGITTMVLTAQGPVLRVREDHAIAAKNNVLVDVDIMTPDTSRGQQAVIGITNYILAKIPG” was “failed”; that for “MAHHHHHHMNPHPVEPRDQIAELLVESPLFSFNCAHFIAFKGFRETLHGHNYNVSLRLRGNIQGDGYVIDFSILKEKVRKVCKQLDHHFILPMYSDVLNIQEVNDNFKITCEDNSEYSFPKRDCVQIPIKHSSTEEIGLYILNQLIEEIDLPFLKTRSVNYMEVTVSESPSQKATVHRNI” was “not failed”; that for “MAHIEKVPQRPGFSWRYRRIDEVEKEYDLHFHDDVFELVIHRHFTGSLHIGHHELEVTHNQMLLIAPGVPHSIHSTLVESKCETHVIWFKREWIANLMFYCAELRKLDPLLKAANKGVVFSERTAQHVVDLLHELMTFPAMEQLSRFLHVLSLIAHDEGAKTLMTHSYLSMSEHELQERERVASVNAYLEQHFATKVTLADLANYLSLSESAVTRLFQKHFKEPFSQRLMKLRINHAADLLQSTSLPIGIVFERVGYRNQALFNRHFKTYKGLTPRDYRQHYQQRIQP” was “failed”.
In the case of “MAHLVITIGCEYGAKGNQIGKKVAKDLGIKFYDRDTVDEIIKEVGIPKDIMEKVEEGITIAGKGAEGDVRGSFSKYADLTERAIHVQKTIIRKLSDRESCVIIGRSADYILKEHKPILRIFIYSPDEVRIENVMKSHNLSEDDAKLFITEKDKRYHKRHMALTGSNRGDRHNRDMLIDSSLLGVDGTAELIESLARKVVENESKTEAGGDK” it was “not failed”.
With “MAHVRLFRHYIHLPFVILGLIDLIVMGLAFALAVFFRFFGELEFFLDNLVFVLPSITIFALFNLIVMIALGVHQSRVEEGMSGMMLRTIMAMILAIPLHGFAYFVADDWLWYLGSFGLLTSATVLGIFSLGIARVVFFAVVGKDRFKRRVLVLGAGRRAKQMFEDLTTPFNRKGFSLDGFVPMPDDTVEVDEQYLINLPTSLHDYVLRHPVREIVVAVDDRRRGLPMEDLLECKMEGVHIIDGANFYERESRKVALEMITRGWLVFSDGFTVSSVYGVGKRALDVLASGTLLLATFPIMILTAIAIKLEDGLKAPVIYSQERVGLNNQVFKVHKFRSMITDAEKNGAVWARKNDTRVTRVGEFIRKVRIDELPQIFNVLNGTMAFVGPRPERPVFVEQLSEKIPFYAERHRVKPGLTGWAQLCFAYADNEEDTREKLRYDLYYIKNQSLLLDLLIIIQTVEVVLFKKGSR”, the protein production result is reported as “failed”.
In the case of “MAIASSSPSSSSNVSVIPTGPQVFISFRGKELRKGFISFLVPALKKKNINVFIDEHEVRGKDLISLFRRIGESKIALVIFSEGYTESKWCLDELVQIKKCVDQKKIIAIPIFYKLDPAVVKGLKGKFGDKFRDLIERYHHEPERYQKWTEALTSVSRTFALCLPEHRLRFFNHKNCLFLVAQDTNDKSEKDFIRSIIKEVKKALSNISRERNGDREEIDDCFVVSERKLTTDMYDTPE”, the protein production entry is reported as “failed”.
Regarding “MAIDTTSSAPVHEPQPPLDTRLSTRDKLVLFVLCAAQFMVALDFSVLNVALPVLGRDLGMSQSALQWAVTAFALPSGGFLLLFGRIGDLYGRRRLFLTGLALFGTASLLATFAWDPASFLAGRALQGLGAAAIVPTGMSLLTTTFPEGPARDRALGISGTLLSLGFTVGMVAGGVLTDAFGWRSTMGLLTLFALIVLPLAPGLLPESRTPDRPRLDIPGAVTVTGGLLSLIYALSTAAERGFGGTDVIATLVAGVLLLAAFVTVESHAEAPLVSLPMLRRRTVAWGNLGGLITFSMMSTVVFVLTLYLQETLGLSAFETGLVFGVQGVLSAVAGANASKVIGRLGARRTLVVSLAGQGAFVATLVALGDGGWSVWLATAAVSLASMCHLGAIISYGLTVTSGVPDDEQGLATGLVTSTQQVGITIGIPLLGVLATTSSDLLAGVHTVLALDAVIVLAAAVLIAVGLGRRPATAPGAASGAVEAEAVGSR”, the protein production result is recorded as “failed”.
For “MAIESGYILTTPCKNEEKSLPELAESIINQTITPKLWLIINDNSTDNSAKILRDIETKYNWIRVVTSEGQKRDLSFHYAEVVRYGLSLSLEISSAEKIPVEYIGLIDADMILEKNFFEKMIDRFEQDPNLGVASGSTAYFEAENLVTEKGRDNLPIGGLRVWRRECLIETGGFPLSYSADSVSNVLALLHGWETKKFEDIIGIQTRRTGSAEGLWKGYITKGESDYYRDYHPVYVLSKFIKYSFTHPFYIGIAYMEGYINGIVKIKKKICIPEVRRYYRKKHLEIGRYYAGKFKFKLLEHHHHHH”, the protein production entry is reported as “failed”.
The value for “MAIGMSELKKGLKIELGGVPYRIVEYQHVKPGKGAAFVRAKIKSFLDGKVIEKTFHAGDKCEEPNLVEKTMQYLYHDGDTYQFMDIESYEQIALNDSQVGEASKWMLDGMQVQVLLHNDKAISVDVPQVVALKIVETAPNFKGDTSSASKKPATLETGAVVQVPFHVLEGEIIKVNTETEEYLEKVK” was “failed”.
In the case of “MAIIASNNSWDLYQLAVVILNYRTPQLVVDCLASLVSQIDPQTQQVIVVDNASGDDSVEEIEKAIANNNWQDWVRLLPSDVNGGFSAGNNLGIQAIRAENYLLLNSDTIVRPGAIQTLLVALEQYPEAGLFSPRLEWPDGTPQISCFRDHSPLSEMIDGARTSVITKLLQPFDVPIPVTEQSFEPQWTSFACVLIRRSVVEQIGLMDDGYFMYYDDIDYCRRARQAAWKIRYIPQASVVHLRGGSGSVKSDVASRKRPRPYLYASRSRYFAKFYGPLGLALANLGWLGGWGIAALREILGQKEPHTCDRQWQDIWFQWRQPLKPYRPELEHHHHHH” it was “not failed”.
For the sequence “MAIKFQYNKTSLQQLEKQLKVRVRTLPIIKNKESALRMEVKRCKTEAAGLEERLEKQIQAYEAMFALWNEFDASLIKVSDVHLGIKKIAGVRVPLLENVDFDIRPYSLFNSPKWYSDGIYLLKGLAQTAIEREFMLAKLNLLEHARKKTTQKVNLFEKVQIPGYQDALRKIKRFMEDEENLSKSSQKILKSIQEKRKEAEA”, the protein production result was “not failed”.
The value for “MAIKVGINGFGRIGRSFFRASWGREEIEIVAINDLTDAKHLAHLLKYDSVHGIFKGSVEAKDDSIVVDGKEIKVFAQKDPSQIPWGDLGVDVVIEATGVFRDRENASKHLQGGAKKVIITAPAKNPDITVVLGVNEEKYNPKEHNIISNASCTTNCLAPCVKVLNEAFGVEKGYMVTVHAYTNDQRLLDLPHKDFRRARAAAINIVPTTTGAAKAIGEVIPELKGKLDGTARRVPVPDGSLIDLTVVVNKAPSSVEEVNEKFREAAQKYRESGKVYLKEILQYCEDPIVSTDIVGNPHSAIFDAPLTQVIDNLVHIAAWYDNEWGYSCRLRDLVIYLAERGL” was “not failed”; that for “MAIRDAFGLTFSGATETGFTPYSQAVRELLCFIGDPVASVDRAILADPGFVMAHVFKGYLFGLATERDATAVARACHEAALPLAATTREEAHVLALGHLANGRWHDAARILEDVAIETPLDALALQVGHQIDFFTGNARMLRDRIARALPSWQSGMPGYHAILGMQAFGLEEMGDYTRAEKLGRTAVEIEPRDGWAQHAVAHVMEMQSRQRDGIVWMRANPEAWTKESFLQVHNWWHLALFHYDLGEIDQVLALYDGPIYGAPSAMALNMVDASALLWRLHLGGIDVGDRWAALAANWPKAGAGDYAFNDAHAMMAFVGAGLDGPALALLEAQREAMHGSGDNAAFTRDVGHPLTLAIKAFGEANYTEAVQLIRPIRAIANRFGGSHAQRDVIDLTLIEAALRAGDRALAGALTAERSMARPDSPLSVLLARRAADLSEN” was “failed”.
Take “MAISKDLYPSQEDLLYEEELLRNQFSLKLWWRYLIAKAESPFKKRFIIYERALKALPGSYKLWYAYLRERLDIVRNLPVTHPQYDSLNNTFERGLVTMHKMPRIWVMYLQTLTVQQLITRTRRTFDRALCALPVTQHDRIWEPYLVFVSQNGIPIETSLRVYRRYLMYDPSHIEEFIEFLVKSERWQESAERLASVLNDDKFYSIKGKTKHKLWLELCELLVHHANVISGLNVDAIIRGGIRKFTDEVGMLWTSLADYYIRKNLLEKARDIYEEGMMKVVTVRDFSVIFDVYSRFEESTVAKKMEMMSSSDEEDENEENGVEDDEEDVRLNFNLSVKELQRKILNGFWLNDDNDVDLRLARLEELMNRRPALANSVLLRQNPHNVEQWHRRVKIFEGNAAKQILTYTEAVRTVDPMKAVGKPHTLWVAFAKLYENHKDLVNTRVIFDKAVQVNYKTVDHLASVWCEWAEMELRHKNFKGALELMRRATAVPTVEVRRRVAADGNEPVQMKLHRSLRLWSFYVDLEESLGTLESTRAVYEKILDLRIATPQIIMNYAFLLEENKYFEDAFKVYERGVKIFKYPHVKDIWVTYLTKFVKRYGKTKLERARELFEHAVSMAPSDAVRTLYLQYAKLEEDYGLAKRAMKVYEEATKKVPEGQKLEMYEIYISRAAEIFGVPRTREIYEQAIESGLPHKDVKIMCIKFAELERSLGEIDRARALYKYSSQFADPRSDPEFWNKWHEFEVQHGNEDTYREMLRIKRSVSASYSQTHFILPENMMQKDKLLDVEDAKGELKRAGLPEDEMAALERQLLSTTTPTEPAKDGGRRVGFVSAGVISQSGENEGKPVTGNGEDIELPDESDDESDGDDHVEISQKEVPAAVFGGLARKRDEDGEEAGEDGAAQKLGALERIKRQKLNQ”: the protein production entry is given as “failed”.
With “MAKAGGITNAVNVGIAVQADWENREFISHISLNVRRLFEFLVQFGKPHSLTYFSVLGFEFN”, the protein production result was “failed”.
As to “MAKEVVYRGSARQRMMQGIEILARAAIPTLGATGPSVMIQHRADGLPPISTRDGVTVANSIVLKDRVANLGARLLRDVAGTMSREAGDGTTTAIVLARHIAREMFKSLAVGADPIALKRGIDRAVARVSEDIGARAWRGDKESVILGVAAVATKGEPGVGRLLLEALDAVGVHGAVSIELGQRREDLLDVVDGYRWEKGYLSPYFVTDRARELAELEDVYLLMTDREVVDFIDLVPLLEAVTEAGGSLLIAADRVHEKALAGLLLNHVRGVFKAVAVTAPGFGDKRPNRLLDLAALTGGRAVLEAQGDRLDRVTLADLGRVRRAVVSADDTALLGIPGTEASRARLEGLRLEAEQYRALKPGQGSATGRLHELEEIEARIVGLSGKSAVYRVGGVTDVEMKERMVRIENAYRSVVSALEEGVLPGGGVGFLGSMPVLAELEARDADEARGIGIVRSALTEPLRIIGENSGLSGEAVVAKVMDHANPGWGYDQESGSFCDLHARGIWDAAKVLRLALEKAASVAGTFLTTEAVVLEIPDTDAFAGFSAEWAAATREDPRV”, the protein production result was “failed”.
